Data from the nanobody polyreactivity screen of Harvey et al. (2022).

Assay: yeast display, Sf9 membrane polyspecificity reagent, FACS + sequencing; frameworks hold sequencing errors
In short: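 Galactose induction of a Saccharomyces cerevisiae BJ5465 synthetic nanobody display library ran 36–48 hours. The cells were then stained for 1 hour at 4 °C with 10% biotinylated, detergent-solubilized Sf9 membrane reagent, pulled down on streptavidin microbeads and FACS-sorted into low and high (top ~1%) gates on expression and reagent-binding fluorescence. Labels for polyreactivity follow the gate of origin.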

Sequence	polyreactivity (PSR sort gate)
QFQLEESGGGLVQAGGSLRLSCAASGITFRRYTMGWYRQAPGKERELVATISLSDGNTYYADSVKGRFTISRDNAKNTVYYQMNSLKPEDTAVYYCNARHTWHQTYDYWGQGTQVTVSS	low polyreactivity
QVQLVESGGGLVQAGGSLRLSCAASGRTFLIYAMGWYRQAPGKERELVAAINNGGSTYYADSVKGRFTISRDNAKNTVYLQMNSLKPEDTAVYYCAARQIRATRYYYWGQGTQVTVSS	high polyreactivity
QVQLVESGGGLVQAGGSLRLSCAASGFIFWYYAMGWYRPAPGKERELVATITRGGSTYYADSVKGRFTISRDNAKNTVYLQLNSLKPEDTAVYYCNAVRPKIYDYWGQGTQVTLSS	high polyreactivity
QFQLVESGGGLDQAGGSLRLSCAASGFTLNRNAMGWYRQAPGKETELVAAITRGGRTYYADSVKGRFTISRDNAKNTVYLQMNSLKPEDTAVYYCARTVGYRTLLESDSWGQGTQVTVSS	high polyreactivity
QVQLQESGGGLEQAGGSLRMSCAANGNIFDADIVGRYRQAPGKKRELVASITDGGITNYADSVKGRFTISRDNAKYTVYLQMNSQNPEDTAVYYCAAIAYPDIPTYFDYDSDFFYWGQGTQVTVSS	high polyreactivity
QVQLVESRGGLVQAGGSLRLSCAASGSIFWLYAMGLYRQAPGKERELVAAIDSGDSTKYADSVKGRFTISRDNAKNTVYLQMNSLKREDTAVYYCNASRRYHVLAPYDYWGQGTQVTVSS	low polyreactivity
QVQLVESGGGLVQAGGSLRLSCAASGFTFGLYAMGWYRQAPGKERELVAAITSGGRTYYADSVKGRFTISRDNAKNTVYFQMNSLNPEDSAVYYCNADFFNAYLWYPGYESGFDYWGQCTQVTVSS	low polyreactivity
QVQLVEPGGGLVQAGGSLRLSCAASGSTFVEYDMGWYRQAPGKERELVAGINSGDRTNYADSVKGRFTISRDNEKNTVYLQMNSLKPEDTAVYYCAVDYRSYAYDYWGQGTQVSVSS	low polyreactivity
QLQLVESGGGLVQAGGSLRLSCAASGSIFSRYAMGWYIQAPGKEMELVAGITRGGSTNYADSVKGRFTLSRDNAKNTVYLHMNSLKPEDTAVYYCAKASRRFLTLGYDYWGQGTQVTVSS	high polyreactivity
QVQLVESGGGLVQAGGSLRLSCAASGFIFYAYTMGWYRQAPGKERELVAAISRSGGRTYYADSVKGRFTISRDNAKNTVYLQMNSLKPEDTAVYYCAAEYRGVPRVVVDYDYWGQGTQVTVSS	high polyreactivity
QVQLVESGGGLVQAGGSLRLSCAASGSIFGYNAMGWYRQAPGKERELVAAINYNGGRTYYADSVKGRFTISRDNAKNTVYLQMNSLKPEDTAVYYCATQGRSLYYRYDYWGQGTQVTVSS	high polyreactivity
QVQLVESGGGLVQAGGSLRLSCAASGFIFDRYAMGWYRQAPGKERELVAAIDTASSTNYADSVKGRFTISRDNAKNTVYLQMNSLKPEDTGVYYCNASGYYYVIYWKVSNYNYWGQGTQVTVSS	low polyreactivity
QVQLVESGGGLVQAGGSLSLSCAASGSIFPHYAMGWYRQAPGKERELVAAISRGGSTNYADSVKGRFTISRDNAKNTVYLQMISLKPEDTAVYYCNARVYTKDYKRYDYWGQGTQVTVSS	high polyreactivity
QVQLVESGGGLVQAGGSLRLTCAASGSIFGGYTMGWYRQAPGKERELVAAISRRGGNTYYADSVKGRFTISRDNAKYTVYLQMNSLKPEDTAVYYCNARPTTYNYDYWGQGTQVTVSS	high polyreactivity
QVQLVDSGVGLVQAGGSLRLTCAASGITFYYYAMGWYRQAPGKERELVARISSGGSTNYSDSVNGRFTISRDNAKNTVYLQMISLKPEDTAVYYCAAVRHRAMDYWGQGTQVTVSS	low polyreactivity
QVQLVESGGGLVQAGGSLRLSCAASGSIFVFNTMGWYRQAPGKERELVAAISDRGTRTYYADSVKGRFTISRDNAKNTVYLQMNSLKPEDTAVYYCATRVYFSPYRYDYWGQGTQVTVSS	high polyreactivity

Sequence	polyreactivity (PSR sort gate)
QVQLVESGGGLVQAGGSLRLSCAASGNTFREYTMGWYRQAPGKERELVAGISGSGGRTYYADSVKGRFTISRDNAKNTVYLQMNSLKPEDTAVYYCYARWYYGIGYNYWGQGTQVTVSS	high polyreactivity
QVQLVESGGGLVQAGGSLRLSCAASGIIFRVYTMGWYRQAPGKERELVAGISSGDSTSYADSVKGRFTISRDNAKNTVYLQMNSLKPEDTAVYYCNAVAYYSYSANFRNAYDYWGQGTQVTVSS	low polyreactivity
QVQLVESGGGLVQAGGSLRLSCAASGFTFYSYAMGWYRQAPGKERELVAAISWSGSRTYYADSVKGRFTISRDNAKNTVYLQMNSLKPEDTAVYYCTKYLPRHRYDFDYWGQGTQVTVSS	high polyreactivity
QVQLVESGGGLVQAGGSLRLSCAASGSTFRYYAMGWYRQAPGKERELVAAITSGGSTNYADSVKGRFTISRDNAKNTVYLQMNSLKPEDTAVYYCAAGRRLRHRYNQGGPDYGYWGQGTQVTVSS	low polyreactivity
QVQLVESGGGLVQAGGSLRLSCAASGFTFRENAMGWSRQAPGKERELVAAISSSGGSTYYADSVKGRFTISRDNAKNTVYLQMNSLKPEDTAVYYCAADATLSFDYWGQGTQVTVSS	high polyreactivity
QVQLVESGGGLVQAGGSLRLSCAASGSTFLHYAMGWYRQAPGKERELVATITSGDSTSYADSVKGRFTISRDNAKNTVYLQMNSLKPEDTAVYYCTANRVHRSASPYDYWGQGTQVTVSS	low polyreactivity
QVQLVESGGGLVQAGGSLRLSCAASGRIFKYYAKGWYIQAPGKERELVAAINRDGGRTYYADSVKGRFTISRDNAKNTVYLQMNSLKPEDTAVYYCAASYGYVYTTSLDYWGQGTQVTVSS	low polyreactivity
QVQLVESGGGLVQAGGSLRLSCAASGSTFPSYAMGWYRQAPGKERELVAAINSGGGTNYADSVKGRFTISRDNAKNTVYLQMNSLKPEDTAVYYCAKSRYDYNKTEGGYWGQGTQVTVSS	low polyreactivity
QVQLVESGGGLVQAGGSLRLSCAASGSTFVKYAMGWYRQAPGKERELVAAISGYSGRTYYADSVKGRFTISRDNAKNTVYLQMNSLKPEDTAVYYCAAEWDDGRSWYWYYLVGFEYWGQGTQVTVSS	high polyreactivity
QDQLVESGGELVQAGGSLRLSCASSGRTFSANGMGWYRQAPAKERELVAAITRSGGITYYADSVKGRFTISRVNAKNTVYLQMNSLKPEDTAVYYCAASVYSLSRRSWMDYWGQGTQVTVSS	low polyreactivity
QVQLVESGGGLVQAGGSLRLSCAASGFTFNSYAMGWYRQAPGKERELVAAISSSGGRTYYADSVKGRFTISRDNAKNTVYFQMNSLKPEDTAVYYCNAVLVSYYSVGYDYWGQGSQVTVSS	high polyreactivity
QVQLVESGGGLVQAGGSLRLSCAASGFTFLRNAMGWYRQAPGKERELVAAISRSDRTNYADSVKGRFTISRDNAKNTFYLQMNSLKPEDTAVYYCNARHSYWTGRRVTDDYDYWGQGTQVTVSS	high polyreactivity
QVQLVESGGGLVQAGGSLRLSCAASGSIFAHNAMGWYRKAPGKERELVAAISSGGSTNYADSVKGRFTISRDNAKNTVYLQMISLKPEDTAVYYCAAVQYAPKWWGEYDYWGQGTQVTVSS	low polyreactivity
QVQLVESGGGLVQAGGSLRLSCAASGFIFSYNAMGWYRQAPGKERELVAAISSRGGSTYYADSVKGRFTISRDNAKNTVYLQTKSLKPEDTAVYYCAVASRRVYTAPYDYWGQGTQVTVSS	high polyreactivity
QVQLVESGGGLVQAGGSLRLSCAASGFTFSPNAMGWYRQAPGKERELVAAITTTGGSTHYADSVKRRFTISRDHAKNTVYLQMHSLKQEDTAVYYCAADWYFEYPTAFHYEYWGQGTQVTVSS	high polyreactivity
